{"source": "patent US20260275312", "about": "“CRISPR NUCLEASE POLYPEPTIDES AND GENE EDITING SYSTEMS COMPRISING SUCH” (ARBOR BIOTECHNOLOGIES, INC., published 2026)", "binders": {"B1": {"name": "H AAVS1-T5 RNA guide ; AAVS1-T5 target (H) (ssRNA ; dsDNA)", "RNA": "GGCUAUAAUCCAUGCUGACCGUUUCAAUCAACCUGAUCUCUCUGCUUGCGCUGCAGGCUUCAUAAGAUCAGUAGGUUGAAAAGAGCAUCCGUCCGACAUGCACUCCGGGAUGGGGCAGUCCCGGCUCUUGCGGUUCCCGAUGCAGUUAUGUGUCCGCGGAACACGGUGUCGGACACGUCGCAAGACAGGAUGUGAGCCCAUUAUCCACAUUAGGAUCAAUGUACGCAUGAGCAGUCCGCAAUGCCGGGGACGCU", "DNA 1": "GGCTATAATCCATGCTGACC", "DNA 2": "GGTCAGCATGGATTATAGCC"}}, "key": {"[1]": {"biological_target": "T1, Nuclease H T783R/E43R/A170R (synthetic construct, T783R,E43R,A170R)", "T1 chain": "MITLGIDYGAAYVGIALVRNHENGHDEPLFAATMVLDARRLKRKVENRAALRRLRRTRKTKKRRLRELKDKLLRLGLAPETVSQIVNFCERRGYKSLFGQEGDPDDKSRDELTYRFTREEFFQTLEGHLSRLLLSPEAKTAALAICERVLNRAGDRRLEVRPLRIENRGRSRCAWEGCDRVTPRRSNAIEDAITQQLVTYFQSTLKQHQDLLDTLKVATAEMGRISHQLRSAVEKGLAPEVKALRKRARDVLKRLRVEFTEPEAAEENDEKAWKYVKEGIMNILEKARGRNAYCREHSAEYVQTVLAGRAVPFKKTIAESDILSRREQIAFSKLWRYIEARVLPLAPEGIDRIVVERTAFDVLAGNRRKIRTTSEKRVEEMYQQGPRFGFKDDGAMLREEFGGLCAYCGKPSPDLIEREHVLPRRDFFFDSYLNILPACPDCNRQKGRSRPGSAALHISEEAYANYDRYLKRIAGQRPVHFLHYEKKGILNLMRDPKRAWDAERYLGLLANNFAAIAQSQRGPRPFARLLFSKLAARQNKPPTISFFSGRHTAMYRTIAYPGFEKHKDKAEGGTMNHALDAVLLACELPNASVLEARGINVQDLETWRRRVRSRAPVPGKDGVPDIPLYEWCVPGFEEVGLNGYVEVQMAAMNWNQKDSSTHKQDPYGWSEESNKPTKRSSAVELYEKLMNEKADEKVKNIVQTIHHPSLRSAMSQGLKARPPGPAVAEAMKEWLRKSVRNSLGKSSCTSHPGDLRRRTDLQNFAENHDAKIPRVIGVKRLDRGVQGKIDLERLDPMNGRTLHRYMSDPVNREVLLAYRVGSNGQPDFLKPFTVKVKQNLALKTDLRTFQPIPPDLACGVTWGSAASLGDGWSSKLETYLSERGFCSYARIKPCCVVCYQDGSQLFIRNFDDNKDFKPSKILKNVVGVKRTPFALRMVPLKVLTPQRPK", "experiment": "cell_activity; HEK293T; PAM AAC", "conditions": "tags: N-term SV40 NLS, XTEN linker + C-term nucleoplasmin NLS", "method": "(§1) HEK293T cells were transfected with plasmids expressing the Nuclease H polypeptides and the gRNAs provided herein following the methods provided in Example 1 above. Gene editing efficiencies were determined by NGS following the methods also provided in Example 1. The NGS results were analyzed also following the methods provided in Example 1 above.\n(§2) Each Nuclease H variant and RNA guide (see Table 16) was cloned as described in Example 9. HEK293T cells were further transfected, followed by NGS analysis, as described in Example 10. For each target, indel ratios, referring to the percentage of NGS reads comprising indels, were calculated for the reference Nuclease H (SEQ ID NO: 64) and for each Nuclease H variant. The indel ratios shown in Table 18 were calculated as the average of two bioreplicates, each of which contained two technical replicates."}, "[2]": {"biological_target": "T2, Nuclease H L54R/L323R/T783R (synthetic construct, L54R,L323R,T783R)", "T2 chain": "T1 chain with R43E, L54R, R170A, L323R", "experiment": "cell_activity; HEK293T; PAM AAC", "conditions": "tags: N-term SV40 NLS, XTEN linker + C-term nucleoplasmin NLS", "method": "as §1, §2"}}, "note": "Numbering of substitutions follows the chain as printed.", "data": [{"binder": "B1", "values": [{"measurement": "activity", "setting": "[1]", "value": 0.184, "unit": "indel ratio"}, {"measurement": "activity", "setting": "[2]", "value": 0.4, "unit": "indel ratio"}]}]}
